# T1: hTREM2 (Homo sapiens, UniProt Q9NZC2)
# T1 construct: The ecto domain (residues 19-172) of TREM2 (UniProtKB—Q9NZC2); secretion signal of mouse Ig kappa chain V-III (P01661 aa 1-20) (N); made in house; host or cells: Expi293F
# T1 sequence (Q9NZC2 19-172): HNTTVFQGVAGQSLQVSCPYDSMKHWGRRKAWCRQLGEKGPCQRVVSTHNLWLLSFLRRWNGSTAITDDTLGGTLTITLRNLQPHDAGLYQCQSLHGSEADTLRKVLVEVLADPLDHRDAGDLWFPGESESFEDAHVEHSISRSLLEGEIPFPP
# Assays:
# TREM2 [1] = biological target: T2, TREM2 (Homo sapiens, UniProt Q9NZC2); test: FACS binning on human TREM2-HEK cells (competition with R&D antibody); type: binding; conditions: epitope bin, 100 nM antibody
# T2 construct: expressed in transfected cells
# Procedure: HEK293 overexpressing human TREM2 (H6) were harvested by 0.05% trypsin and incubated at 37° C. incubator for 2 hours for surface TREM2 recovery. After incubation, cells were washed with 1×PBS and FACS buffer (PBS+0.5% BSA) with human Trustain FcX solution (Biolegend, Cat #422302) was added at a density of 10^6/mL. Cells were seeded at 100,000 cells per well in a 96-well round-bottom and incubated 20 minutes at room temperature. After incubation, anti-TREM2 antibodies (100 nM) were added to the cells and the cells were incubated for 45 minutes on ice. After incubation, rat anti-h/mTREM2-APC antibody (1:100, R&D, Cat # FAB17291A) was added to the cells, and the cells were incubated for 30 minutes on ice. After incubation, cells were washed with FACS buffer three times and resuspended in 10 μL FACS buffer, then analyzed by flow cytometry (BD FACSCanto II, San Jose, Calif.). 20,000 events were obtained for each sample. The ability to compete with R&D antibody was determined by MFI analysis compared to isotype or buffer control wells.
# hTREM2 = biological target: T1, hTREM2; test: Octet binning (competition with R&D antibody on biotinylated TREM2-His); type: binding; conditions: epitope bin, 100 nM
# Procedure: Competition with R&D antibody was done by Octet Red using biotinylated human Trem2-His protein generated in house. Biotinylated human TREM2-His protein was captured on a streptavidin tip, and the tip was then incubated in either 100 nM of R&D Ab or buffer for 3 minutes, followed by incubation for 3 minutes in 100 nM of testing hybridoma. The difference of hybridoma binding curve with or without pre-binding to R&D antibody was analyzed to determine the epitope.
# TREM2 [2] = biological target: T2, TREM2; test: PAM and single point pSyk screen, HEK293 TREM2/DAP12 cells, antibody with or without PS/PC liposomes; type: cell-based
# Procedure: Two days in advance of the experiment, HEK293 cells stably overexpressing TREM2 and DAP12 were plated at 40,000 cells/well on a 96 well poly-D-lysine-coated plate. In PAM experiments utilizing lipid vesicles, the lipid vesicles (see protocol below) were then mixed with the antibodies (at a constant concentration) on a 96-well plate using a Hamilton Nimbus liquid handler at a liposome concentration of 0, liposome EC20, EC50, or EC80 (see below) in PBS. In agonist experiments alone (no liposomes), antibodies were diluted without liposomes in PBS. The cells were washed 3× with HBSS with a Biotek 405/406 plate washer, then 50 μL of the liposome/antibody mixture was added per well using a Hamilton Nimbus liquid handler. The cell plate containing the liposome/antibodies was then transferred to a 37° C. incubator for 5 minutes. The liposome/antibody solution was removed by flicking the plate, and 40 μL lysis buffer (Cell Signaling Technologies, CST) was added using the liquid handler. […]
# The liposomes were diluted in HBSS, and 50 μL of liposome solution was added per well to TREM2/DAP12-overexpressing cells using the Hamilton Nimbus liquid handler as in the above protocol. […] The pSyk response was measured as described above from 10 μL lysate, and the curve fit using a non-linear regression (4 parameter dose response) fit in Prism.
# human macrophages = test: Signaling pathway Alpha-LISA (pSYK, pERK1/2, pGSK3-beta, pAKT) in human macrophages; type: cell-based; conditions: 15 minutes
# Procedure: Anti-TREM2 antibodies were characterized for activation of several signaling pathways, SYK, ERK1/2, AKT and GSK3-beta. Human macrophages differentiated from peripheral monocytes were plated in 96-well plates at a density of 100,000 cell/well. The assay was tested in three conditions (0%, 0.5%, and 10% FBS in the media) for 3 hours. Cells were stimulated with the antibody RS9.F6, 24B4.A1, 8A11.B1, 3D3.A1, 54C2.A1, isotype control IgG2ak, rat anti-TREM2 from R&D, isotype control rat IgG2b, or no treatment (NT) for 15 minutes. The cell lysates were measured for p-Y525/526-SYK, p-T202/Y204-ERK1/2, p-S9-GSK3-beta, and p-S473-AKT using Alpha-LISA kits (Perkin Elmer). […] The antibodies stimulated p-GSK signal moderately (FIG. 6C).
# T2 sequence (Q9NZC2 19-230): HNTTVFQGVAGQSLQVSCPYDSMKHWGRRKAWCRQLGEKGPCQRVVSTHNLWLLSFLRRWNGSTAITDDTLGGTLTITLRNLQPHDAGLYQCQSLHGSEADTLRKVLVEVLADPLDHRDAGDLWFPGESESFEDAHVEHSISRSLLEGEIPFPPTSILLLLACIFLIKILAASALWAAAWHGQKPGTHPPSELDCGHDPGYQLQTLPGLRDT
# T2 sequence (O43914 22-113 partner): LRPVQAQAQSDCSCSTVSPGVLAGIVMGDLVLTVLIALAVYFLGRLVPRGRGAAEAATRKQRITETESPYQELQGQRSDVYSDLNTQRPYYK
Bin by FACS (TREM2 [1]),Bin by Octet (hTREM2),"p-Syk induction by antibody alone (in words) (TREM2 [2]; no liposomes, HEK293 TREM2/DAP12)","interaction with lipid ligand to activate p-Syk (in words) (TREM2 [2]; FIG. 9A, 30 nM antibody, PS/PC liposomes, HEK cells)",Molecule,p-SYK signal (human macrophages),pERK1/2 signal (human macrophages)
1-2,1-2,do not induce p-Syk,,"21D11: anti-TREM2 antibody clone; VH SEQ ID NO:14, VL SEQ ID NO:25 (antibody, V domains shown) VH: QVQLQQSGAELARPGASVKLSCKASGYTFTSYWIQWVKQRPGQGLEWIGTIYPGDGDARYTQKFKGKATLTADKSSSTTYMQLNSLASEDSAVYYCARNGITTAGYYAMDYWGQGTSVTVSS VL: DIQMTQSPASLSVSVGETVTITCRASENIYSNLAWYQQKQGRSPQLLVYAATNLADGVPSRFSGSGSGTQYSLKINSLQSEDFGYYYCQHFWGTPYTFGGGTKVEIK",,
3,3,,additive with lipid TREM2 activators,"3D3.A1: anti-TREM2 antibody clone; VH SEQ ID NO:18, VL SEQ ID NO:29 (antibody, V domains shown) VH: EVQLQQSGPELVKPGASVKISCKTSGYTLSEYTMHWVIQSHGKSLEWIGGVIPNSGGTSYNQKFRDKASLTVDKSSSTAYLELRSLTSEDSAVYYCARGDDSYRRGYALDYWGQGTSVTVSS VL: DIVMSQSPSSLAVSVGEKVTMSCKSSQSLLYSSNQKSYLAWYQQKPGQSPKLLIYWASTRESGVPDRFRGSGSGTDFTLTISSVKAEDLAVYYCQQYFSYPPTFGGGTKLEIK",robust,robust
,,,,"RS9.F6: anti-TREM2 antibody clone; VH SEQ ID NO:24, VL SEQ ID NO:35 (antibody, V domains shown) VH: QVQLQQPGAELVKPGASVKLSCKASGYTFTSYWMHWVKQSPGRGLEWIGRSDPTTGGTNYNEKFKTKATLTVDKPSSTAYMQLSSLTSDDSAVYYCVRTSGTGDYWGQGTSLTVSS VL: DVVMTQTPLSLPVSLGDQASISCRSSQSLVHNNGNTFLHWYLQKPGQSPKLLIYKVSNRFSGVPDRFSGSGSGTDFTLKISRVEAEDLGVYFCSQTTHVPPTFGGGTKLEIK",robust,robust

# — patent US20200277373A1, “ANTI-TREM2 ANTIBODIES AND METHODS OF USE THEREOF” (Denali Therapeutics Inc., priority 2017, published 2020)
